According to US20220056101A1 (published 2022):

T1: Epstein-Barr virus latent membrane protein 2 (LMP2) peptide on HLA-A11 (human)
T1 peptide: SSCSSCPLSK

T2: Epstein-Barr virus latent membrane protein 2 (LMP2) peptide on HLA-A24 (human)
T2 peptide: SSCSSCPLSK


Assays:
[1] = molecular target: T1, Epstein-Barr virus latent membrane …; assay: killing
[2] = molecular target: T2, Epstein-Barr virus latent membrane …; assay: killing

Binder | binding result [1] | binding result [2]
TCR-NPC-A11-003 (TCR, V domains shown) Valpha: GIQVEQSPPDLILQEGANSTLRCNFSDSVNNLQWFHQNPWGQLINLFYIPSGTKQNGRLSATTVATERYSLLYISSSQTTDSGVYFCAVVNNNDMRFGAGTRLTVKP Vbeta: DTEVTQTPKHLVMGMTNKKSLKCEQHMGHRAMYWYKQKAKKPPELMFVYSYEKLSINESVPSRFSPECPNSSLLNLHLHALQPEDSALYLCASSPGRWYEQFFGPGTRLTVL | recognises | no recognition
TCR-NPC-A11-125 (TCR, V domains shown) Valpha: GIQVEQSPPDLILQEGANSTLRCNFSDSVNNLQWFHQNPWGQLINLFYIPSGTKQNGRLSATTVATERYSLLYISSSQTTDSGVYFCAVLNNNDMRFGAGTRLTVKP Vbeta: DTEVTQTPKHLVMGMTNKKSLKCEQHMGHRAMYWYKQKAKKPPELMFVYSYEKLSINESVPSRFSPECPNSSLLNLHLHALQPEDSALYLCASSQGRWYEAFFGQGTRLTVV | recognises | no recognition
